Test results taken from US20130052132A1, “Method for Producing Radioactively Labeled Polypeptide” (priority 2011, published 2013).
* marks the point of attachment. Benzoyl(3-I) = O=C(c1cccc(I)c1)*

T1: GLP-1R of the pancreatic β-cells (Mus musculus, UniProt O35659)
T1 construct: the pancreas was dissected out of the mouse; from tissue; host or cells: pancreas sections of MIP-GFP mice after intravenous dosing
T1 sequence (O35659 22-463): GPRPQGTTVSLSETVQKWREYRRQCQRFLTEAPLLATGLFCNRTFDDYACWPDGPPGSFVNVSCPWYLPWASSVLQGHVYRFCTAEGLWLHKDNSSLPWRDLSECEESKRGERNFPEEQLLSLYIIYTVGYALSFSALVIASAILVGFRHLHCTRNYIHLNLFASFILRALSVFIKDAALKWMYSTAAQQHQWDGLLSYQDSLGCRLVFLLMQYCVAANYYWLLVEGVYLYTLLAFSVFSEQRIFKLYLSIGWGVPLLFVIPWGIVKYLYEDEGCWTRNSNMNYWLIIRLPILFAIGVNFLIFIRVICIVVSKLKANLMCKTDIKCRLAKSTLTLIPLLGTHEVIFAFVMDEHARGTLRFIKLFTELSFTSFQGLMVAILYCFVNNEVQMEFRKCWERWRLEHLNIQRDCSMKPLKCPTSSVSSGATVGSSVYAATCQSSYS

T2: GLP-1R (glucagon-like peptide-1 receptor) of mouse pancreatic islet cells (mouse, UniProt O35659 22-463)
T2 construct: whole, on cells; also called GLP-1R of pancreatic beta-cells
T2 sequence: T1 sequence (O35659 22-463)

B1: polypeptide represented by the formula (11) (peptide)
peptide: Ac-DLSK(Benzoyl(3-I))QMEEEAVRLFIEWLRNGGPSSGAPPPS-NH2
SMILES: CC[C@H](C)[C@H](NC(=O)[C@H](Cc1ccccc1)NC(=O)[C@H](CC(C)C)NC(=O)[C@H](CCCNC(=N)N)NC(=O)[C@@H](NC(=O)[C@H](C)NC(=O)[C@H](CCC(=O)O)NC(=O)[C@H](CCC(=O)O)NC(=O)[C@H](CCC(=O)O)NC(=O)[C@H](CCSC)NC(=O)[C@H](CCC(N)=O)NC(=O)[C@H](CCCCNC(=O)c1cccc(I)c1)NC(=O)[C@H](CO)NC(=O)[C@H](CC(C)C)NC(=O)[C@H](CC(=O)O)NC(C)=O)C(C)C)C(=O)N[C@@H](CCC(=O)O)C(=O)N[C@@H](Cc1c[nH]c2ccccc12)C(=O)N[C@@H](CC(C)C)C(=O)N[C@@H](CCCNC(=N)N)C(=O)N[C@@H](CC(N)=O)C(=O)NCC(=O)NCC(=O)N1CCC[C@H]1C(=O)N[C@@H](CO)C(=O)N[C@@H](CO)C(=O)NCC(=O)N[C@@H](C)C(=O)N1CCC[C@H]1C(=O)N1CCC[C@H]1C(=O)N1CCC[C@H]1C(=O)N[C@@H](CO)C(N)=O
notes: Non-radioactive exendin(9-39) derivative with Arg in place of Lys at position 19; Formula (11) itself is a drawing; also called cold probe

Tests used:
[1] = target: T1, GLP-1R of the pancreatic β-cells; assay: Two-dimensional imaging analysis of pancreas sections (fluorescence and autoradiography); format: in vivo, MIP-GFP mouse; settings: MIP-GFP mice
Protocol: The polypeptide of Example 1 (5 μCi/100 μl) was administered to an unanesthetized MIP-GFP mouse (male, weight: 20 g) by intravenous injection, and after 30 minutes and 60 minutes from the administration, the pancreas was dissected out of the mouse (n=1). Sections were cut out of the dissected pancreas, and each section was placed on a slide glass, covered with a cover glass. The fluorescence and radioactivity (autoradiography) of each section were determined using an image analyzer (trade name: Typhoon 9410, manufactured by GE Health Care Inc.) (exposure time: 18 hours). The exemplary results are shown in lanes 1, 4 and 5 of FIG. 2. […] After 30 minutes from the preliminary administration, the polypeptide of Example 1 (5 μCi/100 μl) was administered to the mice by intravenous injection, and after 30 minutes and 60 minutes from the administration of the polypeptide, the pancreases were dissected out of the mice (n=2). Sections were cut out of the dissected pancreases, and the fluorescence and radioactivity of each section were determined in the same manner as above. […] FIG. 4 illustrates exemplary results of the imaging analysis of pancreas sections of MIP-GFP mice to which the polypeptide of Example 2 was administered. The images on the upper row show a fluorescence signal and those on the lower row show a radioactivity signal of the polypeptide represented by the formula (20). […]

[2] = set-up: species or system ddY mice; settings: mouse
Protocol: After 5 minutes, 15 minutes, 30 minutes, 60 minutes, and 120 minutes from the administration, organs were dissected out of the mice (n=5). The weight and radioactivity of each organ were determined, and an accumulation amount (% dose/g) of the polypeptide of Example 1 was calculated from the radioactivity per unit weight. FIG. 1 is a graph showing, by way of example, how the accumulation of the polypeptide of Example 1 in each organ changed over time. Table 2 provides the ratio of pancreas/liver (accumulation amount in pancreas/accumulation amount in liver), the ratio of pancreas/kidney (accumulation amount in pancreas/accumulation amount in kidney), and the ratio of pancreas/blood (accumulation amount in pancreas/accumulation amount in blood) based on the accumulation amount of the polypeptide of Example 1 in each organ. The polypeptide of Example 2 (0.51 μCi) was administered to unanesthetized 6-week-old ddY mice (male, weight: 30 g) by intravenous injection (through the tail vein). After 5 minutes, 15 minutes, 30 minutes, 60 minutes, and 120 minutes from the administration, organs were dissected out of the mice (n=5). The weight and radioactivity of each organ were determined, and an accumulation amount (% dose/g) of the polypeptide of Example 2 was calculated from the radioactivity per unit weight. FIG. 3 is a graph showing, by way of example, how the accumulation of the polypeptide of Example 2 in each organ changed over time. Table 4 provides the ratio of pancreas/liver, the ratio of pancreas/kidney, and the ratio of pancreas/blood based on the accumulation amount of the polypeptide of Example 2 in each organ. A biodistribution experiment was performed by following the same procedure as in Example 1 except that the polypeptide of Example 4 (0.61 μCi) was used in place of the polypeptide of Example 1. FIG. 6 is a graph showing, by way of example, how the accumulation of the polypeptide of Example 4 in each organ changed over time. […]

[3] = target: T2, GLP-1R (glucagon-like peptide-1 …); assay: displacement of [125I]Bolton-Hunter labeled exendin(9-39) from mouse pancreatic islet cells, filter separation, gamma counter
Protocol: First, pancreatic islets isolated from a mouse was recovered in a 50 ml-tube and after subjecting them to centrifugation (2000 rpm, 2 minutes), they were washed once with 20 ml of cold PBS. To the washed pancreatic islets, 15 ml of trypsin-EDTA (which was prepared by adding 12 ml of PBS-containing 0.53 mM EDTA (pH 7.4 (NaOH)) to 3 ml of trypsine-EDTA (0.05%/0.53 mM)) was added. This was incubated at 37° C. for one minute while shaken, and then immediately placed on ice. Subsequently, after it was subjected to vigorous pipetting 20 times with a 10 ml pipette dropper without being foamed, cold PBS was added so that the final amount would be 30 ml. After centrifugation (3000 rpm, 2 minutes), it was washed twice with 30 ml of cold PBS. The supernatant was removed, whereby a pancreatic islet cell sample was obtained. The obtained pancreatic islet cell sample was reserved at −80° C.
The pancreatic islet cell sample was suspended in a buffer (20 mM HEPES (pH 7.4), 1 mM MgCl₂, 1 mg/ml bacitracin, 1 mg/ml BSA) so as to make 100 μL/tube. […] Next, after B/F separation by aspirating with use of an aspirator to which a pre-moistened glass fiber filter (Whatman GF/C filter) was attached, the filter was washed three times with 5 ml of ice-cold PBS. The filter was set into the tube, and the radioactivity measurement was carried out with a gamma counter.

Molecule	localization of the radioactivity signal in pancreas sections ([1]; 30 and 60 minutes after intravenous injection, compared with GFP signal)	radioactivity signal in pancreas sections after blocking the receptors ([1]; preliminary administration of cold probe non-labeled exendin(9-39) 50 μg 30 minutes before)	deiodization metabolism in vivo [2]	accumulation in the pancreas ([2]; in vivo)	ratio of pancreas/kidney in the accumulation amount ([2]; in vivo)	IC50 [3] [nM]
Example 1 (DLSKQMEEEAVRLFIEWLRNGGPSSGAPPPS; A polypeptide produced in Production Example 1)	substantially consistent with that of the GFP signal	hardly detected	not subjected to deiodization metabolism in vivo	exceeding 15 % dose/g	≥ 1	
B1						32.1
